Changes are numbered by the printed parent chain. Like-named read-outs stand apart in the source and are kept apart here.
T1: human IL-18BP (interleukin-18 binding protein, isoform A) (human, UniProt O95998 31-194)
T1 sequence: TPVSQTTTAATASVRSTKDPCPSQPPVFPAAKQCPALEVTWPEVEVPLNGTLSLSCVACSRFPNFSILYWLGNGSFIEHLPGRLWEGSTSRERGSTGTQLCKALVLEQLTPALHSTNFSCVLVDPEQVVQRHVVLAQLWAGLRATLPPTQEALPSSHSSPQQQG

T2: human IL-18BP (human, UniProt O95998 31-194)
T2 construct: UniProt printed as 095998; also called hIL-18BP
T2 sequence: T1 sequence

T3: cynomolgus IL-18BP (cynomolgus monkey)
T3 construct: also called cyno IL-18BP; cyIL-18BP
T3 chain: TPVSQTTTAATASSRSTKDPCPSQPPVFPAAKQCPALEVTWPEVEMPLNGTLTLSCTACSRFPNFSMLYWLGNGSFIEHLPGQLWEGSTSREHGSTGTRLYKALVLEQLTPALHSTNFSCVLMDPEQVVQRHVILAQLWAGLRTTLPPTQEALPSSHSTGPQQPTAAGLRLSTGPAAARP

B1: SA304a (antibody, human IgG1, V domains shown)
VH: QVQLQESGPGLVKPSQTLSLTCTVSGYSITSDYNAHWIRQPPGKGLEWIGYIHYSGSTNYNPSLKSRVTISRDTSKNQFSLKLSSVTAADTAVYYCARNYASIYVNYFDYWGQGTLVTVSS
VL: EIVLTQSPATLSLSPGERATLSCSASSSVSYMYWYQQKPGQAPRPLIYRTSNLASGIPARFSGSGSGTDFTLTISSLEPEDFAVYYCQQYHSYPTFGGGTKVEIK
B2: SA305a (antibody, human IgG1, V domains shown)
VH: B1 VH with Y100F
VL: B1 VL
B3: SA306a (antibody, human IgG1, V domains shown)
VH: B1 VH with A35N, A101G
VL: B1 VL
B4: SA308a (antibody, human IgG1, V domains shown)
VH: B1 VH with S57A, A101G
VL: B1 VL
B5: SA301a HC-I99A (antibody, name in Kabat numbering, V domains shown)
VH: B1 VH with A35S, A101G, I103A
VL: B1 VL
notes: IgG1 kappa
B6: SA301a HC-I99D (antibody, name in Kabat numbering, V domains shown)
VH: B1 VH with A35S, A101G, I103D
VL: B1 VL
notes: IgG1 kappa
B7: SA301a HC-I99E (antibody, name in Kabat numbering, V domains shown)
VH: B1 VH with A35S, A101G, I103E
VL: B1 VL
notes: IgG1 kappa
B8: SA301a HC-I99L (antibody, name in Kabat numbering, V domains shown)
VH: B1 VH with A35S, A101G, I103L
VL: B1 VL
notes: IgG1 kappa
B9: SA301a HC-I99P (antibody, name in Kabat numbering, V domains shown)
VH: B1 VH with A35S, A101G, I103P
VL: B1 VL
notes: IgG1 kappa
B10: SA301a HC-I99Y (antibody, name in Kabat numbering, V domains shown)
VH: B1 VH with A35S, A101G, I103Y
VL: B1 VL
notes: IgG1 kappa
B11: SA301a HC-N100bE (antibody, name in Kabat numbering, V domains shown)
VH: B1 VH with A35S, A101G, N106E
VL: B1 VL
notes: IgG1 kappa
B12: SA301a HC-N100bM (antibody, name in Kabat numbering, V domains shown)
VH: B1 VH with A35S, A101G, N106M
VL: B1 VL
notes: IgG1 kappa
B13: SA301a HC-N100bP (antibody, name in Kabat numbering, V domains shown)
VH: B1 VH with A35S, A101G, N106P
VL: B1 VL
notes: IgG1 kappa
B14: SA301a HC-N100bQ (antibody, name in Kabat numbering, V domains shown)
VH: B1 VH with A35S, A101G, N106Q
VL: B1 VL
notes: IgG1 kappa
B15: SA301a HC-N100bR (antibody, name in Kabat numbering, V domains shown)
VH: B1 VH with A35S, A101G, N106R
VL: B1 VL
notes: IgG1 kappa
B16: SA301a HC-N100bY (antibody, name in Kabat numbering, V domains shown)
VH: B1 VH with A35S, A101G, N106Y
VL: B1 VL
notes: IgG1 kappa
B17: SA301a HC-S54R (antibody, name in Kabat numbering, V domains shown)
VH: B1 VH with A35S, S55R, A101G
VL: B1 VL
notes: IgG1 kappa
B18: SA301a HC-S54T (antibody, name in Kabat numbering, V domains shown)
VH: B1 VH with A35S, S55T, A101G
VL: B1 VL
notes: IgG1 kappa
B19: SA301a HC-S54V (antibody, name in Kabat numbering, V domains shown)
VH: B1 VH with A35S, S55V, A101G
VL: B1 VL
notes: IgG1 kappa
B20: SA301a HC-S54Y (antibody, name in Kabat numbering, V domains shown)
VH: B1 VH with A35S, S55Y, A101G
VL: B1 VL
notes: IgG1 kappa
B21: SA301a HC-V100aA (antibody, name in Kabat numbering, V domains shown)
VH: B1 VH with A35S, A101G, V105A
VL: B1 VL
notes: IgG1 kappa
B22: SA301a HC-V100aD (antibody, name in Kabat numbering, V domains shown)
VH: B1 VH with A35S, A101G, V105D
VL: B1 VL
notes: IgG1 kappa
B23: SA301a HC-V100aF (antibody, name in Kabat numbering, V domains shown)
VH: B1 VH with A35S, A101G, V105F
VL: B1 VL
notes: IgG1 kappa
B24: SA301a HC-V100aH (antibody, name in Kabat numbering, V domains shown)
VH: B1 VH with A35S, A101G, V105H
VL: B1 VL
notes: IgG1 kappa
B25: SA301a HC-V100aI (antibody, name in Kabat numbering, V domains shown)
VH: B1 VH with A35S, A101G, V105I
VL: B1 VL
notes: IgG1 kappa
B26: SA301a HC-V100aN (antibody, name in Kabat numbering, V domains shown)
VH: B1 VH with A35S, A101G, V105N
VL: B1 VL
notes: IgG1 kappa
B27: SA301a HC-Y53A (antibody, name in Kabat numbering, V domains shown)
VH: B1 VH with A35S, Y54A, A101G
VL: B1 VL
notes: IgG1 kappa
B28: SA301a HC-Y53D (antibody, name in Kabat numbering, V domains shown)
VH: B1 VH with A35S, Y54D, A101G
VL: B1 VL
notes: IgG1 kappa
B29: SA301a HC-Y53E (antibody, name in Kabat numbering, V domains shown)
VH: B1 VH with A35S, Y54E, A101G
VL: B1 VL
notes: IgG1 kappa
B30: SA301a HC-Y53F (antibody, name in Kabat numbering, V domains shown)
VH: B1 VH with A35S, Y54F, A101G
VL: B1 VL
notes: IgG1 kappa
B31: SA301a HC-Y53G (antibody, name in Kabat numbering, V domains shown)
VH: B1 VH with A35S, Y54G, A101G
VL: B1 VL
notes: IgG1 kappa
B32: SA301a HC-Y53H (antibody, name in Kabat numbering, V domains shown)
VH: B1 VH with A35S, Y54H, A101G
VL: B1 VL
notes: IgG1 kappa
B33: SA301a HC-Y53I (antibody, name in Kabat numbering, V domains shown)
VH: B1 VH with A35S, Y54I, A101G
VL: B1 VL
notes: IgG1 kappa
B34: SA301a HC-Y53K (antibody, name in Kabat numbering, V domains shown)
VH: B1 VH with A35S, Y54K, A101G
VL: B1 VL
notes: IgG1 kappa
B35: SA301a HC-Y53L (antibody, name in Kabat numbering, V domains shown)
VH: B1 VH with A35S, Y54L, A101G
VL: B1 VL
notes: IgG1 kappa
B36: SA301a HC-Y53M (antibody, name in Kabat numbering, V domains shown)
VH: B1 VH with A35S, Y54M, A101G
VL: B1 VL
notes: IgG1 kappa
B37: SA301a HC-Y53P (antibody, name in Kabat numbering, V domains shown)
VH: B1 VH with A35S, Y54P, A101G
VL: B1 VL
notes: IgG1 kappa
B38: SA301a HC-Y53Q (antibody, name in Kabat numbering, V domains shown)
VH: B1 VH with A35S, Y54Q, A101G
VL: B1 VL
notes: IgG1 kappa
B39: SA301a HC-Y53R (antibody, name in Kabat numbering, V domains shown)
VH: B1 VH with A35S, Y54R, A101G
VL: B1 VL
notes: IgG1 kappa
B40: SA301a HC-Y53S (antibody, name in Kabat numbering, V domains shown)
VH: B1 VH with A35S, Y54S, A101G
VL: B1 VL
notes: IgG1 kappa
B41: SA301a HC-Y53T (antibody, name in Kabat numbering, V domains shown)
VH: B1 VH with A35S, Y54T, A101G
VL: B1 VL
notes: IgG1 kappa
B42: SA301a HC-Y53V (antibody, name in Kabat numbering, V domains shown)
VH: B1 VH with A35S, Y54V, A101G
VL: B1 VL
notes: IgG1 kappa

How the values were obtained:
[1] = molecular target: T1, human IL-18BP (interleukin-18 binding …); experiment: cell-based or functional assay
[2] = molecular target: T2, human IL-18BP; experiment: BLI, apparent KD
[3] = molecular target: T3, cynomolgus IL-18BP; experiment: BLI, apparent KD
[4] = molecular target: T2, human IL-18BP; experiment: BLI, apparent KD; remark: listed apart in the source

| Binder | Kd [2] | Kd [3] | Kd [4] | further results |
| --- | --- | --- | --- | --- |
| B1 |  |  |  | EC50 in PBMC Assay 1 (endogenous IL-18BP), IFNγ [1]: 3100 pM; EC50 in PBMC Assay 2 (precomplexed IL-18BP), IFNγ [1]: 3000 pM |
| B2 |  |  |  | EC50 in PBMC Assay 1 (endogenous IL-18BP), IFNγ [1]: 4400 pM; EC50 in PBMC Assay 2 (precomplexed IL-18BP), IFNγ [1]: 790 pM |
| B3 |  |  |  | EC50 in PBMC Assay 1 (endogenous IL-18BP), IFNγ [1]: 127000 pM; EC50 in PBMC Assay 2 (precomplexed IL-18BP), IFNγ [1]: 19700 pM |
| B4 |  |  |  | EC50 in PBMC Assay 1 (endogenous IL-18BP), IFNγ [1]: 7900 pM; EC50 in PBMC Assay 2 (precomplexed IL-18BP), IFNγ [1]: 2200 pM |
| B5 | 510 pM | 610 pM |  |  |
| B6 | 1010 pM | 1070 pM |  |  |
| B7 | 1950 pM | 3980 pM |  |  |
| B8 | 490 pM | 890 pM |  |  |
| B9 | 410 pM | 510 pM |  |  |
| B10 | 480 pM | 450 pM |  |  |
| B11 | 310 pM | 910 pM |  |  |
| B12 |  | 1830 pM |  |  |
| B13 |  | 110 pM |  |  |
| B14 |  | 420 pM |  |  |
| B15 | 250 pM |  |  |  |
| B16 |  | 470 pM |  |  |
| B17 |  |  | 4060 pM |  |
| B18 |  |  | 1140 pM |  |
| B19 |  |  | 550 pM |  |
| B20 |  |  | 4660 pM |  |
| B21 | 470 pM | 150 pM |  |  |

| Binder | Kd [2] | Kd [3] | Kd [4] | further results |
| --- | --- | --- | --- | --- |
| B22 | 4990 pM | 360 pM |  |  |
| B23 |  | 440 pM |  |  |
| B24 | 410 pM | 60 pM |  |  |
| B25 | 90 pM | 250 pM |  |  |
| B26 | 680 pM | 110 pM |  |  |
| B27 |  |  | 2600 pM |  |
| B28 |  |  | 3200 pM |  |
| B29 |  |  | 5060 pM |  |
| B30 |  |  | 390 pM |  |
| B31 |  |  | 1860 pM |  |
| B32 |  |  | 2410 pM |  |
| B33 |  |  | 1870 pM |  |
| B34 |  |  | 3160 pM |  |
| B35 |  |  | 2420 pM |  |
| B36 |  |  | 400 pM |  |
| B37 |  |  | 380 pM |  |
| B38 |  |  | 1810 pM |  |
| B39 |  |  | 7080 pM |  |
| B40 |  |  | 2640 pM |  |
| B41 |  |  | 1950 pM |  |
| B42 |  |  | 2160 pM |  |

Reference: patent publication US20250368745A1 (published 2025)
